Test results as given in article PMC9036127, “The nuclease activity of DNA2 promotes exonuclease 1–independent mismatch repair” (The Journal of Biological Chemistry, 2022).

Target: T1, Human MutSα (MSH2-MSH6 heterodimer) (human, UniProt P43246 1-934; P52701 1-1360)
T1 construct: MSH2, human, subunit of MutSα; MSH6, human, subunit of MutSα
Assay: co-IP; purified proteins; MutSα- or MutLα-containing agarose beads (antibodies against MSH2 or MLH1), DNA2 in solution; for MutSα 30-μl mixtures with MutSα (3.4 pmol) and DNA2 (3.4 pmol); eluted fractions analyzed by immunoblotting
Settings: both partners purified

T1 sequence (P43246 whole entry, chain 1 of 2): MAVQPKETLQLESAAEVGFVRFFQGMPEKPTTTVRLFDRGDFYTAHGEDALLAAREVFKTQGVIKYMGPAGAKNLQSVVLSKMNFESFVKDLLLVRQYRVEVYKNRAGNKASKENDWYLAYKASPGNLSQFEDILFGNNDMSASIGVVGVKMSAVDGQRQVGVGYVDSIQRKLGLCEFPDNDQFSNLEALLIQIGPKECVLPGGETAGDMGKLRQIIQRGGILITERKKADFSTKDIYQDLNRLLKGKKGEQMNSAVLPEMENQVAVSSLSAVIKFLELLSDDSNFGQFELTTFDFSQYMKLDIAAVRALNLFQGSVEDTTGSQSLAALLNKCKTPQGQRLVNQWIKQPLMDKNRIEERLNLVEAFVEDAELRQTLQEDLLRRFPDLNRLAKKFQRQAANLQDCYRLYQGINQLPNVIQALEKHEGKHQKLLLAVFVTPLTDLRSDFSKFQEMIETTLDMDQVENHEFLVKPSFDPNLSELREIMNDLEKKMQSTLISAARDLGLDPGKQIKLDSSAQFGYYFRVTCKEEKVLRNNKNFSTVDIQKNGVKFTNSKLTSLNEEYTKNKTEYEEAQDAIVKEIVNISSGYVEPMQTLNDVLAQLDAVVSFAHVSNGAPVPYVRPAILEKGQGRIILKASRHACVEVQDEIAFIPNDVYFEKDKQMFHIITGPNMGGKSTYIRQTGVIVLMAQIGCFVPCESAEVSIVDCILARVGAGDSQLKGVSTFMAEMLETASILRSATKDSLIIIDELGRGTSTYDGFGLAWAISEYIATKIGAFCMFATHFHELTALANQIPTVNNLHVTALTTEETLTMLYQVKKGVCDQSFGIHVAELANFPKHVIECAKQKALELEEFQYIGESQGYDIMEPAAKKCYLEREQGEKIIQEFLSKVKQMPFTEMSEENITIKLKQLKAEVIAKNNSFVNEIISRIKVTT
T1 sequence (P52701 whole entry, chain 2 of 2): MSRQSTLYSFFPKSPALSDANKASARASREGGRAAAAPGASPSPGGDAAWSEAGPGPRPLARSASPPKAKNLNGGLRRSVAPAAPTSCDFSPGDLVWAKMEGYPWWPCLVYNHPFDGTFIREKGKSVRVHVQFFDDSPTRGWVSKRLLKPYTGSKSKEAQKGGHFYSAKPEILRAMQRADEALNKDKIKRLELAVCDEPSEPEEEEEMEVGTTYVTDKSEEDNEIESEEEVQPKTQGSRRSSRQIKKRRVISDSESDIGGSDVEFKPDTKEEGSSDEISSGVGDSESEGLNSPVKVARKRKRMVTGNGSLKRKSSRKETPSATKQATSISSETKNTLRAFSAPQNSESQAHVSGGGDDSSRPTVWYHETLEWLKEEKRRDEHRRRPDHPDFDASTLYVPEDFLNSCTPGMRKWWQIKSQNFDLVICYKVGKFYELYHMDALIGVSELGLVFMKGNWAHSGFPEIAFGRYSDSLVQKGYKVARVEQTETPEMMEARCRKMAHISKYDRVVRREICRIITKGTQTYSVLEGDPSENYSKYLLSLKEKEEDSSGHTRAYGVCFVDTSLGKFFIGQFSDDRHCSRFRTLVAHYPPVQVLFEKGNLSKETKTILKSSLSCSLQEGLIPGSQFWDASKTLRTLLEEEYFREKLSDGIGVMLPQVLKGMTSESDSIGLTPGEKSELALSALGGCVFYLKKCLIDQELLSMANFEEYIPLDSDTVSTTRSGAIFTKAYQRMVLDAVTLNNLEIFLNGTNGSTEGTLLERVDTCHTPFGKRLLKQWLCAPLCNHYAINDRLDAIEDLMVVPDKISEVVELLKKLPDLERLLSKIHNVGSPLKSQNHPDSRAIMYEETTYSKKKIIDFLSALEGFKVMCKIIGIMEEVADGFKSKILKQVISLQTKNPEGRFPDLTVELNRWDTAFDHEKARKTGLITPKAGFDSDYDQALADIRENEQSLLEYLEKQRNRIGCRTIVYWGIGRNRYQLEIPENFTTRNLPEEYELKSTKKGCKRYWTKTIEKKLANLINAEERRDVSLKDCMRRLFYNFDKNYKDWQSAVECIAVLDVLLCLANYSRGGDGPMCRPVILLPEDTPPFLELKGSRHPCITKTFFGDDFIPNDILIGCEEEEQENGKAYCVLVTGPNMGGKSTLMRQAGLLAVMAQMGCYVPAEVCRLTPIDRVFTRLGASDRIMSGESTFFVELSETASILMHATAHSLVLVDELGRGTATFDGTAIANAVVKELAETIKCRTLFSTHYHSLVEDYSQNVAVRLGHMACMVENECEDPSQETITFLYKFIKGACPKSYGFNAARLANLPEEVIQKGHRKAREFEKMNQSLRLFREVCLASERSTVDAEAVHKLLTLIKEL

B1: Human DNA2 nuclease/helicase (enzyme, UniProt P51530 1-1060, looked up)
chain: MEQLNELELLMEKSFWEEAELPAELFQKKVVASFPRTVLSTGMDNRYLVLAVNTVQNKEGNCEKRLVITASQSLENKELCILRNDWCSVPVEPGDIIHLEGDCTSDTWIIDKDFGYLILYPDMLISGTSIASSIRCMRRAVLSETFRSSDPATRQMLIGTVLHEVFQKAINNSFAPEKLQELAFQTIQEIRHLKEMYRLNLSQDEIKQEVEDYLPSFCKWAGDFMHKNTSTDFPQMQLSLPSDNSKDNSTCNIEVVKPMDIEESIWSPRFGLKGKIDVTVGVKIHRGYKTKYKIMPLELKTGKESNSIEHRSQVVLYTLLSQERRADPEAGLLLYLKTGQMYPVPANHLDKRELLKLRNQMAFSLFHRISKSATRQKTQLASLPQIIEEEKTCKYCSQIGNCALYSRAVEQQMDCSSVPIVMLPKIEEETQHLKQTHLEYFSLWCLMLTLESQSKDNKKNHQNIWLMPASEMEKSGSCIGNLIRMEHVKIVCDGQYLHNFQCKHGAIPVTNLMAGDRVIVSGEERSLFALSRGYVKEINMTTVTCLLDRNLSVLPESTLFRLDQEEKNCDIDTPLGNLSKLMENTFVSKKLRDLIIDFREPQFISYLSSVLPHDAKDTVACILKGLNKPQRQAMKKVLLSKDYTLIVGMPGTGKTTTICTLVRILYACGFSVLLTSYTHSAVDNILLKLAKFKIGFLRLGQIQKVHPAIQQFTEQEICRSKSIKSLALLEELYNSQLIVATTCMGINHPIFSRKIFDFCIVDEASQISQPICLGPLFFSRRFVLVGDHQQLPPLVLNREARALGMSESLFKRLEQNKSAVVQLTVQYRMNSKIMSLSNKLTYEGKLECGSDKVANAVINLRHFKDVKLELEFYADYSDNPWLMGVFEPNNPVCFLNTDKVPAPEQVEKGGVSNVTEAKLIVFLTSIFVKAGCSPSDIGIIAPYRQQLKIINDLLARSIGMVEVNTVDKYQGRDKSIVLVSFVRSNKDGTVGELLKDWRRLNVAITRAKHKLILLGCVPSLNCYPPLEKLLNHLNSEKLIIDLPSREHESLCHILGDFQRE
notes: DNA2 nuclease/helicase, human; wild type; source: insect Sf9 cells (baculovirus, codon-optimized gene), purified (α-Flag M2 beads, MonoS column)
binding result: binds
